Patent US20040096898A1 (MCMASTER UNIVERSITY, published 2004)
Ends that are not written are not given here.

Biological target: T1, PMCA398 (WVQKRPWLAESTPIYIQYFVKC) (conjugated through the terminus cysteine to keyhole limpet hemocyanin or ovalbumin)
T1 construct: Used as the KHLH conjugate (coated), as the free peptide (coated) and as the ovalbumin conjugate (eluting)
T1 peptide: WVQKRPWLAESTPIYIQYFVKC
Experiment: phage display panning on coated peptide conjugate
Description: The peptide fragment from the PMCA protein is preferably from an extracellular domain of the PMCA protein. […] The inventors screened an MEK13 random peptide phage display library (New England Biolabs, USA) and identified a phage that bound to the PMCA398-keyhole limpet hemocyanin conjugate and eluted with the PMCA398-ovalbumin. Specific details on the screening assay are provided in Example 1. A peptide containing the 12 amino add recognition sequence and a spacer ([…]-amide, SEQ.ID.NO.1) was synthesized and subsequently termed caloxin 2A1.
1.4.4. Screening Procedure for PMCA398: The peptide PMCA398 is extremely hydrophobic. Therefore, it was conjugated at a lower (5:1 molar) ratio to KHLH and ovalbumin. The peptide and its conjugates could be used only at low concentrations as very fine suspensions. […] Therefore, a strategy of sequentially increasing selectivity was used. First three rounds of panning were conducted at low stringency. […] The selected phage were pooled. […] After three high stringency washes, a differential time elution was performed—at each time point replacing the elutant with new PBS. The idea was that the most tightly bound phage would elute last. The elution was at room temperature for 1, 2, 4, 8, 16 and then 120 min. The phage from 16 and 120 min elutants gave excellent results in selectivity assays. […]

B1: phage displaying the 12 amino acid peptide VSNSNWPSFPSS (peptide)
peptide: VSNSNWPSFPSS
modifications: also: displayed as a fusion on M13KE phage
notes: also called phage from 16 and 120 min elutants; consensus clone of the PMCA398 screen; not shown: rest of the M13KE phage display fusion (PhD12 library); not described
Question: Does B1 bind?
Answer: binds
